B1: H2-Kb / B15 (parent complex)
chain 1: QQQVRQSPQSLTVWEGETAILNCSYENSAFDYFPWYQQFPGEGPALLISILSVSDKKEDGRFTIFFNKREKKLSLHIADSQPGDSATYFCAASAASNNRLTLGKGTQVVVLP
chain 2: DSGVVQSPRHIIKEKGGRSVLTCIPISGHSNVVWYQQTLGKELKFLIQHYEKVERDKGFLPSRFSVQQFDDYHSEMNMSALELEDSAMYFCASSRRADAEQFFGPGTRLTVL
chain 3: not shown
chain 4: IQKTPQIQVYSRHPPENGKPNILNCYVTQFHPPHIEIQMLKNGKKIPKVEMSDMSFSKDWSFYILAHTEFTPTETDTYACRVKHDSMAEPKTVYWDRDM
chain 5: SIINFEKL
B2: H2-Kb / Ed9 (parent complex)
chain 1: AQSVTQPDARVTVSEGASLQLRCKYSYFGTPYLFWYVQYPRQGLQLLLKYYPGDPVVQGVNGFEAEFSKSNSSFHLRKASVHWSDWAVYFCAVSITGGYKVVFGSGTRLLVSP
chain 2: DSGVVQSPRHIIKEKGGRSVLTCIPISGHSNVVWYQQTLGKELKFLIQHYEKVERDKGFLPSRFSVQQFDDYHSEMNMSALELEDSAMYFCASSPRQSDYTFGSGTRLLVI
chain 3: not shown
chain 4: B1 chain 4
chain 5: SIINFEKL

Variants of: B1
Experiment: % of reporter cells activated (NFAT-GFP), raw
Further: test concentration or dose not given here.

Row | Variant | ratio to parent
1 | chain 5 N4W | 0.0638
2 | chain 5 K7V | 0.454
3 | chain 5 F5A | 0.953
4 | chain 5 L8F | 0.907
5 | chain 5 I2G | 0.917
6 | chain 5 I3H | 0.491
7 | chain 5 I2V | 1
8 | chain 5 F5V | 0.999
9 | chain 5 I2D | 0.987
10 | chain 5 K7S | 0.774
11 | chain 5 E6F | 0.13
12 | chain 5 E6S | 0.221
13 | chain 5 F5N | 0.673
14 | chain 5 K7M | 0.155
15 | chain 5 I3F | 0.0424
16 | chain 5 L8C | 0.767
17 | chain 5 I3W | 0.479
18 | chain 5 K7R | 0.928
19 | chain 5 K7T | 0.124
20 | chain 5 S1P | 0.545
21 | chain 5 F5E | 0.531
22 | chain 5 L8H | 0.905
23 | chain 5 S1V | 0.199
24 | chain 5 N4G | 0.184
25 | chain 5 L8P | 0.75
26 | chain 5 E6I | 0.00958
27 | chain 5 I2Y | 0.764

Row | Variant | ratio to parent
28 | chain 5 F5T | 1.03
29 | chain 5 N4L | 0.391
30 | chain 5 L8E | 0.741
31 | chain 5 S1K | 0.591
32 | chain 5 E6A | 0.205
33 | chain 5 L8V | 0.901
34 | chain 5 F5Y | 0.952
35 | chain 5 N4A | 0.0258
36 | chain 5 K7Y | 0.383
37 | chain 5 I3C | 0.607
38 | chain 5 I2N | 0.974
39 | chain 5 I3L | 0.812
40 | chain 5 F5Q | 0.579
41 | chain 5 S1I | 0.115
42 | chain 5 K7E | 0.0434
43 | chain 5 K7D | 0.117
44 | chain 5 N4M | 0.00683
45 | chain 5 I3K | 0.71
46 | chain 5 F5D | 0.553
47 | chain 5 K7I | 0.0863
48 | chain 5 N4Y | 0.151
49 | chain 5 I2C | 0.934
50 | chain 5 I3Y | 0.0196
51 | chain 5 L8N | 0.844
52 | chain 5 I3M | 0.891
53 | chain 5 S1L | 0.456
54 | chain 5 L8I | 0.934

Row | Variant | ratio to parent
55 | chain 5 K7H | 0.291
56 | chain 5 S1W | 0.383
57 | chain 5 I2Q | 0.85
58 | chain 5 L8D | 0.692
59 | chain 5 I2L | 1.03
60 | chain 5 E6G | 0.491
61 | chain 5 F5W | 0.981
62 | chain 5 I2H | 0.9
63 | chain 5 L8A | 0.833
64 | chain 5 E6V | 0.0123
65 | chain 5 L8K | 0.801
66 | chain 5 I3T | 0.273
67 | chain 5 E6Y | 0.15
68 | chain 5 L8M | 0.955
69 | chain 5 N4T | 0.01
70 | chain 5 N4D | 0.0675
71 | chain 5 I2S | 0.959
72 | chain 5 S1G | 0.669
73 | chain 5 S1C | 0.577
74 | chain 5 I2R | 0.972
75 | chain 5 L8S | 0.802
76 | chain 5 F5H | 0.944
77 | chain 5 E6W | 0.0482
78 | chain 5 K7F | 0.0871
79 | chain 5 L8Y | 0.793
80 | chain 5 E6K | 0.623
81 | chain 5 F5R | 0.96

Row | Variant | ratio to parent
82 | chain 5 K7Q | 0.212
83 | chain 5 E6Q | 0.41
84 | chain 5 N4R | 0.382
85 | chain 5 E6M | 0.324
86 | chain 5 E6T | 0.132
87 | chain 5 I2K | 0.859
88 | chain 5 E6C | 0.47
89 | chain 5 L8W | 0.805
90 | chain 5 I2A | 0.958
91 | chain 5 N4C | 0.0905
92 | chain 5 K7L | 0.159
93 | chain 5 K7G | 0.457
94 | chain 5 I3E | 0.599
95 | chain 5 E6R | 0.221
96 | chain 5 I3V | 0.798
97 | chain 5 K7W | 0.836
98 | chain 5 I3R | 0.339
99 | chain 5 I3G | 0.362
100 | chain 5 N4P | 0.00661
101 | chain 5 S1E | 0.759
102 | chain 5 S1A | 0.847
103 | chain 5 E6P | 0.328
104 | chain 5 L8T | 0.977
105 | chain 5 I2P | 0.772

Variants of: B2
Experiment: % of reporter cells activated (NFAT-GFP), raw

Row | Variant | ratio to parent
106 | chain 5 K7I | 0.919
107 | chain 5 I3F | 0.0133
108 | chain 5 F5V | 1.27
109 | chain 5 I3V | 1.12
110 | chain 5 I2E | 1.11
111 | chain 5 S1A | 1.17
112 | chain 5 E6Q | 0.646
113 | chain 5 E6C | 0.0497
114 | chain 5 N4D | 0.832
115 | chain 5 E6W | 0.0935
116 | chain 5 I2R | 1.12
117 | chain 5 S1C | 0.147
118 | chain 5 K7P | 0.525
119 | chain 5 E6H | 0.73
120 | chain 5 I3S | 1.01
121 | chain 5 F5Q | 1.33
122 | chain 5 E6D | 0.85
123 | chain 5 I3E | 0.56
124 | chain 5 K7V | 0.845
125 | chain 5 I2L | 1.31
126 | chain 5 S1F | 0.245
127 | chain 5 I3L | 1.03
128 | chain 5 I2Y | 0.858

Row | Variant | ratio to parent
129 | chain 5 I2H | 0.854
130 | chain 5 S1R | 0.402
131 | chain 5 L8C | 0.957
132 | chain 5 F5H | 1.29
133 | chain 5 S1G | 0.224
134 | chain 5 K7A | 0.47
135 | chain 5 I3H | 1.17
136 | chain 5 F5M | 1.32
137 | chain 5 E6N | 0.203
138 | chain 5 I2D | 1.21
139 | chain 5 E6M | 0.725
140 | chain 5 I2P | 1
141 | chain 5 L8H | 1.16
142 | chain 5 N4T | 0.127
143 | chain 5 S1L | 0.0324
144 | chain 5 E6S | 0.469
145 | chain 5 F5L | 1.36
146 | chain 5 L8P | 0.817
147 | chain 5 I2M | 1.18
148 | chain 5 I3C | 0.633
149 | chain 5 I2V | 1.32
150 | chain 5 I2N | 0.905

— article PMC11480844 (2024)
